According to patent US20230321261A1, “AXL-SPECIFIC ANTIBODY-DRUG CONJUGATES FOR CANCER TREATMENT” (GENMAB A/S, priority 2016, published 2023):
Where a chain is given by its changes, count along the chain named. Names may count otherwise.

Tests used:
[1] = molecular target: T1, human-mouse chimeric AXL mutants (Homo sapiens, UniProt P30530, A151P/A183V/D170T/D266N/G187S/H193Q/P184T/P188S/R148K/R190H/T149A/T182P/V194T); assay: AXL domain specificity using human-mouse AXL chimeric molecules (flow cytometry); assay type: binding; details: 1 µg/mL antibody
T1 construct: constructs for expression of various full-length AXL variants were generated; expressed in transfected cells; host or cells: HEK293F

[2] = molecular target: T2, Gas6 binding to AXL on A431 cells (Homo sapiens, UniProt P30530); assay: Gas6 binding to A431 cells pre-incubated with AXL antibodies; details: pre-incubation with 10 µg/mL antibody; control antibody b12
T2 construct: endogenous in cells; host or cells: A431
Experimental: Alternatively, A431 cells were pre-incubated with 10 µg/mL AXL antibodies (15 minutes, 4° C.) to assess if the AXL ligand Gas6 could still bind in presence of AXL antibodies. […] After washing three times in PBS/0.1% BSA/0.02% azide, cells were incubated with mouse anti-Gas6 IgG2a (R&D Systems; cat no. MAB885) at 4° C. for 30 min. After washing three times in PBS/0.1% BSA/0.02% azide, cells were incubated with FITC-labelled goat anti-mouse IgG (Dako, Heverlee, Belgium; cat no. F049702) at 4° C. for 30 min in the dark. Next, cells were washed twice in PBS/0.1% BSA/0.02% azide, resuspended in 120 µL PBS/0.1% BSA/0.02% azide and analyzed on a FACS Cantoll (BD Biosciences).
(§1) Binding curves were analyzed using non-linear regression (sigmoidal dose-response with variable slope) using GraphPad Prism V5.04 software (GraphPad Software, San Diego, CA, USA).
Therefore, binding of Gas6 to A431 cells that had been pre-incubated with 10 µg/mL AXL antibodies was tested as described in Example 2.

[3] = molecular target: T3, AXLECDHis (extracellular domain of human AXL) (Homo sapiens, UniProt P30530); assay: Binding affinity by Bio-Layer Interferometry (ForteBio OctetRED384); details: 1:1 model, 30° C.
T3 construct: the extracellular domain (ECD) of human AXL (aa 1-447) with a C-terminal His tag (AXLECDHis); His tag (C); made in house; host or cells: HEK-293F

[4] = molecular target: T4, full length human AXL (Homo sapiens, UniProt P30530); assay: Flow cytometry binding to transfected HEK293T cells; details: at least 3 experiments
T4 construct: expression constructs for full length human AXL; expressed in transfected cells; host or cells: HEK293T
Experimental: HEK293T cells were transiently transfected with expression constructs for full length human AXL, human AXL with a cynomolgus monkey extracellular domain (ECD) or human AXL with a mouse ECD (see Example 1). Binding of HuMab-AXL antibodies to these cells was evaluated by flow cytometry. Transfected HEK293 cells were incubated with serial dilutions of AXL-antibodies (final concentration range 0.0024-10 µg/mL) for 30 minutes at 4° C. […] Next, cells were washed twice in PBS/0.1% BSA/0.02% azide, resuspended in 120 µL PBS/0.1% BSA/0.02% azide and analyzed on a FACS Cantoll (BD Biosciences).
as §1

[5] = test system: PAXF1657 tumors; assay: PAXF1657 pancreas cancer PDX model; assay type: in vivo, NMRI nu/nu mice; details: mouse, in vivo
[6] = molecular target: T5, AXL on A431 cells (Homo sapiens, UniProt P30530); assay: Antibody binding to A431 cells with or without Gas6 pre-incubation; details: for Antibody binding to A431 cells: EC50 in presence of Gas6 (µg/mL) mean (s.d.) / Antibody binding to A431 cells: Maximal binding in presence of Gas6 (% of binding in absence of Gas6) mean (s.d.): pre-incubation with 10 µg/mL Gas6; for Antibody binding to A431 cells: EC50 w/o Gas6 (µg/mL) mean (s.d.): without Gas6 pre-incubation
T5 construct: AXL-positive A431 cells were incubated; endogenous in cells; host or cells: A431

[7] = molecular target: T6, human AXL transiently expressed by HEK-293F cells (Homo sapiens, UniProt P30530); assay: Homogeneous antigen specific screening assay (FMAT); assay type: binding
T6 construct: TH1021-AXL (HEK-293F cells transiently expressing full length human AXL; produced as described above); expressed in transfected cells; host or cells: HEK-293F

[8] = molecular target: T7, human AXL with a cynomolgus monkey extracellular domain (ECD) (Homo sapiens, UniProt P30530, P441T/S191N/S285L/T105A/T112A/T125N/T443A); assay: Flow cytometry binding to transfected HEK293T cells; details: at least 3 experiments
T7 construct: aa 1-447); human AXL transmembrane and intracellular part (the remainder of human AXL after the ECD; expressed in transfected cells; host or cells: HEK293T

[9] = test system: A431 cells; assay: Antibody-dependent cell-mediated cytotoxicity (51Cr release); assay type: cell-based, human; details: concentrations up to 10 µg/mL; PBMC effector to target ratio 100:1
Experimental: The ability of anti-AXL antibodies to induce ADCC of A431 epidermoid carcinoma cells was determined as explained below. As effector cells, peripheral blood mononuclear cells from healthy volunteers (UMC Utrecht, The Netherlands) were used.
A431 cells were collected (5×10^6 cells) in culture medium (RPMI 1640 culture medium supplemented with 10% fetal calf serum (FSC)), to which 100 µCi ^51Cr (Chromium-51; Amersham Biosciences Europe GmbH, Roosendaal, The Netherlands) had been added, and the mixture was incubated in a 37° C. water bath for 1 hour (hr) while shaking. After washing of the cells (twice in PBS, 1200 rpm, 5 min), the cells were resuspended in RPMI1640/10% FSC and counted by trypan blue exclusion. […]
Peripheral blood mononuclear cells (healthy volunteers, UMC Utrecht, Utrecht, The Netherlands) were isolated from 45 mL of freshly drawn heparin blood by Ficoll (Bio Whittaker; lymphocyte separation medium, cat 17-829E) according to the manufacturer’s instructions. After resuspension of cells in RPMI1640/10% FSC, cells were counted by trypan blue exclusion and diluted to a density of 1×10^7 cells/mL.
50 µl of ^51Cr-labeled targets cells were pipetted into 96-well plates, and 50 µl of antibody were added, diluted in RPMI1640/10% FSC (3-fold dilutions at final concentrations range 0.01-10 µg/mL). […] The percentage specific lysis was calculated as follows: […]

[10] = molecular target: T8, human-mouse chimeric AXL mutants (Homo sapiens, UniProt P30530, A349V/A358V/A407T/A411S/A425P/A431G/C405S/D266N/F350L/G397R/H352R/I340V/K439S/P444R/Q372R/Q387R/Q394R/Q436H/R386T/S398P/S400A/S442P/T343M/T443P/V434L); assay: AXL domain specificity using human-mouse AXL chimeric molecules (flow cytometry); assay type: binding; details: 1 µg/mL antibody
T8 construct: constructs for expression of various full-length AXL variants were generated; expressed in transfected cells; host or cells: HEK293F

B1: IgG1-AXL-148: AXL-specific human IgG1,κ antibody, VH SEQ ID NO:5, VL SEQ ID NO:6, Ig2 domain binding (antibody, listed as Homo sapiens, V domains shown)
VH: EVQLLESGGGLVQPGGSLRLSCAASGFTFSSYAMTWVRQAPGKGLEWVSAISISGGSTFYADSVKGRFTISRDNSKNTLYLQMNSLRAEDTAVYYCRGYSGYVYDAFDFWGQGTMVTVSS
VL: DIQMTQSPSSLSASVGDRVTITCRASQGISNWLAWYQQKPEKAPKSLIYAASSLQSGVPSRFSGSGSGTDFTLTISSLQPEDFATYYCQQYNSYPLTFGGGTKVEIK
binding to hsAXL-mmIg2 [1]: strongly reduced binding
Gas6 binding to A431 cells: Maximal binding in presence of AXL antibodies (% of binding in presence of control antibody) mean (s.d.) [2]: 106 (7) %
Binding affinity (OCTET) Kdis [3]: 0.0044 s⁻¹
Binding affinity (OCTET) Kon [3]: 230000 M⁻¹ s⁻¹
Binding EC50 (µg/mL) human AXL Average (s.d.) [4]: 0.094 (0.059) µg/mL
anti-tumor activity in the PAXF1657 model (FIG. 10B, 10C) [5]: did not result in anti-tumor activity
Antibody binding to A431 cells: EC50 in presence of Gas6 (µg/mL) mean (s.d.) [6]: 0.20 (0.30) µg/mL
Antibody binding to A431 cells: Maximal binding in presence of Gas6 (% of binding in absence of Gas6) mean (s.d.) [6]: 93 (5) %
Antibody binding to A431 cells: EC50 w/o Gas6 (µg/mL) mean (s.d.) [6]: 0.11 (0.13) µg/mL
Maximal binding (Arbitrary units) [7]: 3499 Arbitrary units
Binding EC50 (µg/mL) cynomolgus AXL Average (s.d.) [8]: 0.152 (0.080) µg/mL
ADCC in A431 cells (percentage specific lysis) [9]: did not induce significant ADCC

B2: IgG1-AXL-726: AXL-specific human IgG1,κ antibody, VH SEQ ID NO:31, VL SEQ ID NO:33, FN2 domain binding (antibody, listed as Homo sapiens, V domains shown)
VH: QVQLQQWGAGLLKPSETLSLTCAIDGGSFSGYYWSWIRQPPGKGLEWIGEISHSGRTNYNPSLKSRVTISIDTSKNQFSLKLSSVAAADTAVYYCARFITMIRGAIITHFDYWGQGALVTVSS
VL: B1 VL with N31S, N92H, L96Y, G100Q, V104L
binding to hsAXL-mmFN2 [10]: lost
Gas6 binding to A431 cells: Maximal binding in presence of AXL antibodies (% of binding in presence of control antibody) mean (s.d.) [2]: 98 (10) %
Binding affinity (OCTET) Kdis [3]: 0.00013 s⁻¹
Binding affinity (OCTET) Kon [3]: 240000 M⁻¹ s⁻¹
Binding EC50 (µg/mL) human AXL Average (s.d.) [4]: 0.288 (0.206) µg/mL
Antibody binding to A431 cells: EC50 in presence of Gas6 (µg/mL) mean (s.d.) [6]: 0.55 (0.69) µg/mL
Antibody binding to A431 cells: Maximal binding in presence of Gas6 (% of binding in absence of Gas6) mean (s.d.) [6]: 97 (10) %
Antibody binding to A431 cells: EC50 w/o Gas6 (µg/mL) mean (s.d.) [6]: 0.32 (0.35) µg/mL
Maximal binding (Arbitrary units) [7]: 3154 Arbitrary units
Binding EC50 (µg/mL) cynomolgus AXL Average (s.d.) [8]: 0.349 (0.160) µg/mL

B3: IgG1-AXL-726-M101L: point mutant of IgG1-AXL-726, VH SEQ ID NO:32, VL SEQ ID NO:33 (antibody, listed as Homo sapiens, V domains shown)
VH: B2 VH with M101L
VL: B1 VL with N31S, N92H, L96Y, G100Q, V104L
Binding affinity (OCTET) Kdis [3]: 6.9e-05 s⁻¹
Binding EC50 (µg/mL) human AXL Average (s.d.) [4]: 0.184 (0.117) µg/mL
Binding EC50 (µg/mL) cynomolgus AXL Average (s.d.) [8]: 0.250 (0.066) µg/mL
ADCC in A431 cells (percentage specific lysis) [9]: did not induce significant ADCC
